In paper PMC9929602:

Target: tetraspanin CD81 (human (endogenous in THP-1)) (UniProt P60033)
Chain of UniProt P60033 (P60033 whole entry): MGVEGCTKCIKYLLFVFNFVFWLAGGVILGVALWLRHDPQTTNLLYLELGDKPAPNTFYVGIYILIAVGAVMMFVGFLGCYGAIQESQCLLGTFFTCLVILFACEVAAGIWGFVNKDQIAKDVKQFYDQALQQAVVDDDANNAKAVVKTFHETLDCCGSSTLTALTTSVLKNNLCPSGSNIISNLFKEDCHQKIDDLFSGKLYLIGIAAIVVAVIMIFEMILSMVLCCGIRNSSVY

With “AhpC-6×His (recombinant M. abscessus AhpC) (enzyme)” the reduction of infectivity of Mab WT (CFU) in THP-1 cells pre-incubated with 2 μg soluble AhpC-His, against untreated cells or cells pre-incubated with Hsp16.7-His was 30%.
